Reference: patent publication US20240218374

Experiments:
[1] = molecular target: Spike S2 ECD (SARS-CoV-2) (UniProt P0DTC2); assay: filter; details: Y=Tyr-dU, p=Nap-dC
[2] = molecular target: Spike RBD-mFc (ACE2 inhibition assay) (SARS-CoV-2) (UniProt P0DTC2); assay: inhibition; details: Y=Tyr-dU, p=Nap-dC; printed CCTTGGGAYApYAYGpGYppGAppGpYpGGApGGAGAAGG [Tyr-dU: 9,12,14,18,27; Nap-dC: 11,16,19,20,23,24,26,28,32]
Spike S1 (SARS-CoV-2) = Spike S1 (SARS-CoV-2) (UniProt P0DTC2); assay: filter
Spike RBD (SARS-CoV-2) = Spike RBD (SARS-CoV-2) (UniProt P0DTC2); assay: filter; details: P=Nap-dU
[3] = molecular target: authentic SARS-CoV-2 virus (VIC01, Clade B) spike (SARS-CoV-2) (UniProt P0DTC2); assay: cell_activity; details: Y=Tyr-dU, p=Nap-dC; printed GGGAYApYAYGpGYppGAppGpYpGGApG [Tyr-dU: 5,8,10,14,23; Nap-dC: 7,12,15,16,19,20,22,24,28]
[4] = molecular target: Spike S1 & S2 ECD (SARS-CoV-2) (UniProt P0DTC2); assay: filter; details: iBudU at 14; other dU Tyr-dU; dC Nap-dC; SB18T0.01, 37 C

**Q.** “CCTTGCAGGCGGCACATGGCACTTCATATCGAGCGGAAGG [26876-3_4 (SL1114)]” was tested. Which Kd ([1]; printed CCTTGpAGGpGGpApAYGGpApYYpAYAYpGAGpGGAAGG [Nap-dC: 6,10,13,15,20,22,25,30,34, Tyr-dU: 17,23,24,27,29]) did it give?
**A.** The Kd was 0.37 nM.

**Q.** Which results are given for “CCTTGGGATACTATGCGTCCGACCGCTCGGACGGAGAAGG [26874-29_4 (SL1111)]”?
**A.** EC50 [2]: 4.2 nM; Kd (Spike S1 (SARS-CoV-2); Y=Tyr-dU, p=Nap-dC, printed CCTTGGGAYApYAYGpGYppGAppGpYpGGApGGAGAAGG [Tyr-dU: 9,12,14,18,27, Nap-dC: 11,16,19,20,23,24,26,28,32]): 3.2 nM

**Q.** “GCATCGGAATGAATGTCTGCCTTGCACTGGTGCGGTCCGATTGTGAGGGA [26860-16_3 (SL1108)]” was tested. Which Kd (Spike RBD (SARS-CoV-2); printed GCATCGGAAPGAAPGPCPGCCPPGCACPGGPGCGGPCCGAPPGPGAGGGA [Nap-dU at 10,14,16,18,22,23,28,31,36,41,42,44]) did it give?
**A.** Its Kd is 0.061 nM.

**Q.** What about the Kd (Spike S1 (SARS-CoV-2); P=Nap-dU, printed GCATCGGAAPGAAPGPCPGCCPPGCACPGGPGCGGPCCGAPPGPGAGGGA [Nap-dU at 10,14,16,18,22,23,28,31,36,41,42,44]) of the same sequence?
**A.** Its Kd is 0.48 nM.

**Q.** With “GCATCATCTCCCAGCTAATGAGTGTCTGAATTGGACTGGTCCTCTGGGGA [26860-75_3 (SL1107)]” as the sequence, how does the Kd (Spike RBD (SARS-CoV-2); printed GCATCAPCPCCCAGCPAAPGAGPGPCPGAAPPGGACPGGPCCPCPGGGGA [7,9,16,19,23,25,27,31,32,37,40,43,45]) read?
**A.** The Kd was 0.23 nM.

**Q.** And the Kd (Spike S1 (SARS-CoV-2); P=Nap-dU, printed GCATCAPCPCCCAGCPAAPGAGPGPCPGAAPPGGACPGGPCCPCPGGGGA [7,9,16,19,23,25,27,31,32,37,40,43,45])?
**A.** The Kd was 2.8 nM.

**Q.** Which Kd ([1]; printed CCTTGYGpAApGpAppYYAYYpGGpYYGAAYGYGAGAAGG [Nap-dC: 8,11,13,15,16,22,25, Tyr-dU: 6,17,18,20,21,26,27,31,33]) does the source give for “CCTTGTGCAACGCACCTTATTCGGCTTGAATGTGAGAAGG [26876-13_4 (SL1115)]” here?
**A.** Its Kd is 0.19 nM.

**Q.** How did the IC50 [3] turn out when “GGGATACTATGCGTCCGACCGCTCGGACG [26874-29_20 (SL1111_20)]” was run?
**A.** The IC50 was 1.1 nM.

**Q.** With “GGGANANNANGNGNNNGANNGNNNGGANG [26874-29_142]” as the sequence, how does the Kd [4] read?
**A.** The Kd was 0.37 nM.
